In patent publication US20140099312A1:

How the values were obtained:
[1] = biological target: mouse PCSK9-mmh (mouse) (UniProt Q80W65); experiment: ELISA, coated mAb, 1.2 nM antigen
[2] = biological target: Chimeric protein #1 (mPro-hCat-mC-term-mmh) (mouse; human) (UniProt Q80W65); experiment: ELISA, coated mAb, 1.2 nM antigen
[3] = biological target: Chimeric protein #2 (hPro-mCat-mC-term-mmh) (human; mouse) (UniProt Q80W65); experiment: ELISA, coated mAb, 1.2 nM antigen
[4] = biological target: Human PCSK9-myc-myc-his (human) (UniProt Q8NBP7); experiment: SPR, mAb captured on anti-mouse IgG, 37C
[5] = biological target: hPCSK9(D374Y)-mmh (human) (UniProt Q8NBP7); experiment: ELISA, coated mAb, 1.2 nM antigen (++ OD>1.0; + OD 0.4-1.0)
[6] = biological target: Human PCSK9-myc-myc-his (human) (UniProt Q8NBP7); experiment: as above
[7] = biological target: Chimeric protein #3 (mPro-mCat-hC-term-mmh) (mouse; human); experiment: as above
[8] = biological target: Human PCSK9-myc-myc-his (human) (UniProt Q8NBP7); experiment: SPR, mAb captured on anti-mouse IgG, 25C

OD [1] [od]	OD [2] [od]	OD [3] [od]	Kd [4] [nM]	T1/2 [4] [min]	OD [5] [od]	OD [6] [od]	OD [7] [od]	Kd [8] [nM]	T1/2 [8] [min]	Binder
< 0.4	< 0.4	< 0.4	7.5	14	> 1	> 1	0.4 to 1	6.4	30	H1M498 (antibody, from a related filing, V domains shown) VH: EVQLVESGGGLVKPGGSLRLSCAASGFTFSSYSMDWVRQAPGKGLEWVSSISSSSSYIYYADSVKGRFTISRDTAKNSLYLQMNSLRDEDTAVYYCAREGSSRLFDYWGQGTLVTVSS VL: DIQMTQSPSTLSASVGDRVTITCRASQSISSWLAWYQQRPGKAPKLLIYKASSLEGGVPSRFSGSGSGTEFTLTISSLQPEDFATYYCQQYNSYWYTFGQGTKLEIK
< 0.4	< 0.4	< 0.4	7.5	19	> 1	> 1	> 1	0.44	222	H1M495 (antibody, from a related filing, V domains shown) VH: EVQLVESGGGLVQPGRSLRLSCAASGFTFDDYAMHWVRQAPGKGLEWVSGINWNSGSIGYADSVKGRFTISRDNAKHSLYLQMNSLRPEDTALYYCVKEVTTGYYYGMDVWGQGTTVTVSS VL: DIQLTQSPSFLSASVGDRVTITCWASQGISSYLAWYQKKPGKAPNLLIYDASTLQSGVPSRFSGSGSGTEFTLTLSSLQPEDFATYYCQQLNIYPFTFGPGTKVDIK
